Assay results reported in the supplement of paper PMC10567573.

B1: MCOLN1 (parent)
chain: EEEDLRRRLKYFFMSPCDKFRAKG

Variants of: B1
Experiment: protein stability index of a GFP-peptide fusion (GPS, HEK-293T) (PSI 1-6); higher = more stable
Conditions: c terminus: a fixed tail appended
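Further: lentivirally expressed fusions sorted by FACS into six bins by GFP to DsRed ratio, PSI derived from sequencing read proportions per bin multiplied by bin number.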

Protein stability index, by site and new letter:
K23: H 1.84; Y 1.53; A 2.78; W 1.2; P 2.5; S 2.26
R6: I 2; E 3.48; N 3.78; W 1.8; P 2.11; T 2.66; Y 1.64; A 3.18; G 2.99; Q 3.04; V 2.34; M 1.42
G24: R 1.73; H 2.07; Q 4.48; M 2.29; D 2.4; E 3.07; K 3.11; W 1.33; S 2.57; P 2.4; I 2.37; V 2.29; F 1.8; T 2.52
R8: M 2.05; T 2.42; V 2.62; L 2.1; H 2.35; W 2.42; A 2; S 2.67; Y 1.64; N 3.29; E 3.21; P 3.23; G 2.97; K 2.71; I 1.76; D 3.11; F 1.42
K10: Y 1.67; S 2.3; L 2.97; G 2.58; T 2.15; P 2.79; C 2.15; F 1.82; H 2.11; M 1.93; D 3.41; V 2.32; E 2.67; R 2.33
F12: I 2.93; S 3.58; D 3.61; A 3.53; T 3.62; R 2.91; E 3.9; W 2.39; N 4.11; L 3.73; P 3.56; H 2.5; G 3.43
S15: M 1.94; Q 2.84; T 3.1; F 2.26; I 1.82; A 2.42; E 3.26; R 2.91; N 2.62; D 3.4; P 1.65; G 2.77; W 2.49; C 1.66; K 2.63; L 2.05; Y 2.62
E3: H 2.33; F 2.04; N 1.91; A 1.62; C 2.65; D 2.41; K 1.87; R 2.15; Q 1.5; Y 1.85; V 2.83; I 1.64; P 2.25; S 2.9; T 1.52
E1: F 2.29; G 2.46; P 2.14; V 1.51; L 2.16; H 3.05; A 2.53; C 3.42; R 1.36; D 2.96; M 2.08; Y 2.27; N 1.51; T 3.34; K 1.76; S 2.24; W 2.2
K19: E 2.94; F 2.21; W 1.69; N 2.48; M 2.27; L 2.14; D 2.45; P 2.66; G 2.37; A 2.21; H 2.65; C 2.33
L5: S 2.92; H 3.31; G 3.05; V 3.09; N 3.51; D 3.43; Y 2.45; W 2.91; F 3.09; C 2.82; Q 3.84; T 3.65; E 3.53; R 3.72; I 1.92; P 3.17; K 3.2; A 2.91
Y11: Q 3.25; T 2.82; M 2.79; N 3.23; L 2.23; W 1.42; P 3.33; V 2.93; R 2.38; A 2.9; K 2.65; I 1.93
